According to patent publication US20180319855A1, “GENETICALLY MUTATED AEQUORIN-BASED BIOSENSORS WITH EXTRA SENSITIVITY TO CALCIUM AND IMPROVED BIOLUMINESCENCE INTENSITY” (CENTRE NATIONAL DE LA RECHERCHE SCIENTIFIQUE (CNRS), priority 2015, published 2018):
Numbering of substitutions follows the chain as printed. Names and notes keep the numbering of the source. Where two headings read alike, the source gives them in different places.

Assays:
[1] = Ca2+ sensitivity curves of reconstituted photoproteins (L/Lmax vs free Ca2+); format: biochemical; conditions: for EC50: read-out: Calcium sensitivity, EC50
Description: For in vitro reconstitution, the purified and concentrated samples of apoaequorin and redquorin mutant proteins were buffer-exchanged to 50 mM Tris-HCl (pH 7.5), 150 mM NaCl, 10 mM EGTA, 5 mM ß-mercaptoethanol, supplemented with 5 μM CLZ-f or CLZ-native and incubated overnight at 4° C., in the dark. The next day, samples were passed through molecular weight cut-offs (AmiconUitra MWCO, 10K and 50K, from Millipore), then resuspended in Zero-Ca^2+ buffer (30 mM MOPS, 100 mM KCl and 10 mM EGTA, pH 7.2) for calcium affinity, emission decay kinetics and spectral analysis assays. As for in cellulo reconstitution, HEK cells transiently expressing the proteins of apoaequorin and aporedquorin mutants were washed twice with Hank's Balanced Salt Solution (HBSS) and incubated in the dark, with 4 μM of the desired CLZ diluted in OptiMEM I medium (Gibco), for 2-3h at 37° C. and 5% CO2. Cells were washed once and maintained in HBSS at 37° C. for 20 min before the experiment.
Functional Analysis of Aequorin Mutants and Fusions Ca^2+ Sensitivity Curves.
Purified and reconstituted samples with CLZ-f or CLZ-native already buffered-exchanged to zero-calcium buffer ensured to minimize calcium contamination that could interfere with the measurements. Fifteen microliter aliquot of photoprotein samples (concentration range, 50 to 90 ng/μl) was placed in a home-made luminometer and mixed with 300 μl solution containing the desired concentration of free-Ca^2+. The solutions of EGTA-buffered with varying free-Ca^2+ prepared according to the manufacturer instruction for the kit (Molecular Probes, Invitrogen). Integration of the luminescence emission (per second) was measured for 20 seconds (background) before injecting a solution with known [free-Ca^2+] and lasted until stable or decaying signal (at final-phase) was obtained. At this point, 400 μl of a saturating calcium solution (30 mM MOPS, 100 mM CaCl2, pH 7.2) was rapidly injected (less than 30 ms) and light integration continued until all aequorin had been consumed and light intensity had gone back to background signal. Luminescence intensity (L) at different [Ca^2+] was taken as the response peak value in case of decaying signal or as the stable value in case of stable emission. Lmax, was measured by integrating all remaining luminescence signal from that moment (L value) to the end of the experiment. The EC50 values were extracted from a sigmoidal dose-response fit (variable slope) using GraphPad Prism software.

[2] = Thermostability: relative bioluminescence activity after 30 min incubation; format: physicochemical; conditions: for Thermostability, luminescence activity relative to wt-aequorin: CLZ-f; for less activity compared to wt-aeq (thermostability): after incubation at 30 and 40° C.
Description: Thermostability of aequorin and redquorin mutant with increased affinity for calcium were compared to wt-aequorin (FIG. 5). The purified photoprotein samples were reconstituted with CLZ-f (as detailed earlier) and let to calibrate at room temperature (20-24° C.) for 20 min before taken the first measurement of total counts using saturating calcium solution (50 mM Tris-HCl, 100 mM CaCl2, pH 7.5). Samples were then incubated at two different temperatures (30 to 40° C.) for 30 min, and let equilibrate at room temperature for 15 minbefore taken the second measurement of total counts in the sample. The relative bioluminescence activity at each temperature was calculated by the ratio 2nd counts (at target T° C.)/1st counts (at initial T° C.) multiplied by 100.
Table 6 highlights the analysis of thermostability data obtained at two temperatures for aequorin and redquorin mutants, as well as CitA and GA. The values represent the degree of change in luminescence activity compared to wt-aeq, at each temperature. All values are relative to wt-aequorin (at each temperature) and were calculated by dividing the obtained data for each mutant/variant by the data for wt-aeq (as reference). The data were taken from FIG. 5.

[3] = CLZ-f, L/Lmax compared to Aeq-wt
[4] = aequorin proteins reconstituted with CLZ-f, sigmoidal curve fit, mean ± SD, n at least 3

B1: S157D: apoaequorin mutant, serine 157 replaced by aspartic acid (SEQ ID NO:12) (protein)
chain: SKLTSDFDNPRWIGRHKHMFNFLDVNHNGKISLDEMVYKASDIVINNLGATPEQAKRHKDAVEAFFGGAGMKYGVETDWPAYIEGWKKLATDELEKYAKNEPTLIRIWGDALFDIVDKDQNGAITLDEWKAYTKAAGIIQSSEDCEETFRVCDIDEDGQLDVDEMTRQHLGFWYTMDPACEKLYGGAVP
modifications: mutant aequorin
For B1, the “Relative intensity at pCa 6.5” value [1, 3] was 6.0, the “Relative intensity at pCa 7.2” value [1, 3] was 2.2 and the EC50 [1, 4] was 322 nM. For the same molecule, the “Thermostability, luminescence activity relative to wt-aequorin” value ([2]; 30° C. for 30 min) was 0.77, the “Thermostability, luminescence activity relative to wt-aequorin” value ([2]; 40° C. for 30 min) was 0.71 and the “less activity compared to wt-aeq (thermostability)” value (“less activity compared to wt-aeq” for short) [2] was “up to 29%”.

B2: QD + ND: apoaequorin double mutant Q159D + N121D (SEQ ID NO:13) (protein)
chain: B1 chain with N121D, D157S, Q159D
modifications: mutant aequorin
In the case of B2, the “Relative intensity at pCa 6.5” value [1, 3] is reported as 29.0, the “Relative intensity at pCa 7.2” value [1, 3] is reported as 41.7 and the EC50 [1, 4] is reported as 295 ± 17 nM. For the same molecule, the “Thermostability, luminescence activity relative to wt-aequorin” value ([2]; 30° C. for 30 min) was 0.81, the “Thermostability, luminescence activity relative to wt-aequorin” value ([2]; 40° C. for 30 min) was 0.81 and the “less activity compared to wt-aeq” value [2] was 20%.

B3: QD + AD: apoaequorin double mutant Q159D + A123D (SEQ ID NO:15) (protein)
chain: B1 chain with A123D, D157S, Q159D
modifications: mutant aequorin
In the case of B3, the “Relative intensity at pCa 6.5” value [1, 3] is reported as 26.2, the “Relative intensity at pCa 7.2” value [1, 3] is reported as 15.0 and the EC50 [1, 4] is reported as 271 ± 15 nM. For the same molecule, the “Thermostability, luminescence activity relative to wt-aequorin” value ([2]; 30° C. for 30 min) was 0.97 and the “Thermostability, luminescence activity relative to wt-aequorin” value ([2]; 40° C. for 30 min) was 0.94.

B4: QD + AT: apoaequorin double mutant Q159D + A179T (SEQ ID NO:17) (protein)
chain: B1 chain with D157S, Q159D, A179T
modifications: mutant aequorin
For B4, the “Relative intensity at pCa 6.5” value [1, 3] was 58.5, the “Relative intensity at pCa 7.2” value [1, 3] was 60.8 and the EC50 [1, 4] was 216 nM. The “Thermostability, luminescence activity relative to wt-aequorin” value ([2]; 30° C. for 30 min) was 1.05 and the “Thermostability, luminescence activity relative to wt-aequorin” value ([2]; 40° C. for 30 min) was 1.07.

B5: N121D: apoaequorin mutant, asparagine 121 replaced by aspartic acid (SEQ ID NO:9) (protein)
chain: B1 chain with N121D, D157S
modifications: mutant aequorin
For B5, the “Relative intensity at pCa 6.5” value [1, 3] was 4.9, the “Relative intensity at pCa 7.2” value [1, 3] was 2.1 and the EC50 [1, 4] was 400 ± 14 nM. For the same molecule, the “Thermostability, luminescence activity relative to wt-aequorin” value ([2]; 30° C. for 30 min) was 0.81, the “Thermostability, luminescence activity relative to wt-aequorin” value ([2]; 40° C. for 30 min) was 0.82 and the “less activity compared to wt-aeq” value [2] was 19%.

B6: Q159G: apoaequorin mutant, glutamine 159 replaced by glycine (SEQ ID NO:7) (protein)
chain: B1 chain with D157S, Q159G
modifications: mutant aequorin
With B6 the “Relative intensity at pCa 6.5” value [1, 3] was 3.3, the “Relative intensity at pCa 7.2” value [1, 3] was 3.2 and the EC50 [1, 4] was 492 ± 10 nM. For the same molecule, the “Thermostability, luminescence activity relative to wt-aequorin” value ([2]; 30° C. for 30 min) was 0.96 and the “Thermostability, luminescence activity relative to wt-aequorin” value ([2]; 40° C. for 30 min) was 0.92.

B7: Redq/QT + AT: aporedquorin mutant Q159T + A179T (SEQ ID NO:24) (protein)
chain: MVSKGEEVIKEFMRFKVRMEGSMNGHEFEIEGEGEGRPYEGTQTAKLKVTKGGPLPFAWDILSPQFMYGSKAYVKHPADIPDYKKLSFPEGFKWERVMNFEDGGLVTVTQDSSLQDGTLIYKVKMRGTNFPPDGPVMQKKTMGWEASTERLYPRDGVLKGEIHQALKLKDGGHYLVEFKTIYMAKKPVQLPGYYYVDTKLDITSHNEDYTIVEQYERSEGRHHLFLGHGTGSTGSGSSGTASSEDNNMAVIKEFMRFKVRMEGSMNGHEFEIEGEGEGRPYEGTQTAKLKVTKGGPLPFAWDILSPQFMYGSKAYVKHPADIPDYKKLSFPEGFKWERVMNFEDGGLVTVTQDSSLQDGTLIYKVKMRGTNFPPDGPVMQKKTMGWEASTERLYPRDGVLKGEIHQALKLKDGGHYLVEFKTIYMAKKPVQLPGYYYVDTKLDITSHNEDYTIVEQYERSEGRHHLFLSGFDNPRWIGRHKHMFNFLDVNHNGKISLDEMVYKASDIVINNLGATPEQAKRHKDAVEAFFGGAGMKYGVETDWPAYIEGWKKLATDELEKYAKNEPTLIRIWGDALFDIVDKDQNGAITLDEWKAYTKAAGIIQSSEDCEETFRVCDIDESGTLDVDEMTRQHLGFWYTMDPTCEKLYGGAVP
modifications: mutant aequorin
In the case of B7, the EC50 ([1]; CLZ-f, redquorin series, CitA, GA) is reported as 284 ± 30 nM, the “Relative intensity at pCa 6.5” value ([1]; CLZ-f, relative to Redq) is reported as 25.6 and the “Relative intensity at pCa 7.2” value ([1]; CLZ-f, relative to Redq) is reported as 9.0. The EC50 ([1]; CLZ-native, redquorin series, CitA, GA) was 605 ± 16 nM, the “Relative intensity at pCa 6.5” value ([1]; CLZ-native, relative to Redq) was 18.3 and the “Relative intensity at pCa 7.2” value ([1]; CLZ-native, relative to Redq) was 14.1. The “Thermostability, luminescence activity relative to wt-aequorin” value ([2]; 30° C. for 30 min) was 0.96 and the “Thermostability, luminescence activity relative to wt-aequorin” value ([2]; 40° C. for 30 min) was 1.03.
